Measurements taken from PMC10297700.

Target: Rsc3ΔIDR (Saccharomyces cerevisiae, UniProt Q06639 1-885, del197-303)
Assay: EMSA

B1: ACC1_TIM23 probe (RSC3 consensus oligonucleotide) (dsDNA)
DNA 1: ACGCGCGCGCGGCCGGGCCA
DNA 2: TGGCCCGGCCGCGCGCGCGT
binding result: binds
